This is an account of results in PMC5431095.

A short description of data set [1]: fluorescence microscopy, NuMA volume at spindle poles. The note with it: control: DMSO.
Data set [2] in a line: confocal microscopy of metaphase cells. Conditions: glycan lost; control: wt NuMA-GFP in NuMA-depleted HeLa.
The nature of data set [3]: Galectin-3 over NuMA fluorescence intensity. Conditions: glycan lost; control: wt NuMA-GFP in NuMA-depleted HeLa.

Turning to “NuMA (Nuclear Mitotic Apparatus protein): Ac-5SGlcNAc”, the localisation_or_trafficking result in data set [1] (glycan lost) was “changes”. For “NuMA (Nuclear Mitotic Apparatus protein): GalNAcα-O-benzyl”, the localisation_or_trafficking entry in data set [1] (glycan lost) is recorded as “no change”. As to “NuMA (Nuclear Mitotic Apparatus protein): S1844A”, the localisation_or_trafficking result in data set [2] is “changes”. Moreover, the “other: Galectin-3 recruitment to spindle poles” value in data set [3] is listed as “decreases”. Take “NuMA (Nuclear Mitotic Apparatus protein): swainsonine”: the localisation_or_trafficking entry in data set [1] (glycan changed form) is “no change”.
